Measurements as given in patent publication US20240035010, “COMPOSITIONS COMPRISING A VARIANT POLYPEPTIDE AND USES THEREOF” (Arbor Biotechnologies, Inc., published 2024).

Columns and labels:
[1] = molecular target: T1, variant nuclease T338G combination (P14R, D32R, I61R, E311R, T338G); assay: cell_activity; PAM 5'-TTTA-3'; conditions: tags: pcDNA3.1 expression
T1 chain: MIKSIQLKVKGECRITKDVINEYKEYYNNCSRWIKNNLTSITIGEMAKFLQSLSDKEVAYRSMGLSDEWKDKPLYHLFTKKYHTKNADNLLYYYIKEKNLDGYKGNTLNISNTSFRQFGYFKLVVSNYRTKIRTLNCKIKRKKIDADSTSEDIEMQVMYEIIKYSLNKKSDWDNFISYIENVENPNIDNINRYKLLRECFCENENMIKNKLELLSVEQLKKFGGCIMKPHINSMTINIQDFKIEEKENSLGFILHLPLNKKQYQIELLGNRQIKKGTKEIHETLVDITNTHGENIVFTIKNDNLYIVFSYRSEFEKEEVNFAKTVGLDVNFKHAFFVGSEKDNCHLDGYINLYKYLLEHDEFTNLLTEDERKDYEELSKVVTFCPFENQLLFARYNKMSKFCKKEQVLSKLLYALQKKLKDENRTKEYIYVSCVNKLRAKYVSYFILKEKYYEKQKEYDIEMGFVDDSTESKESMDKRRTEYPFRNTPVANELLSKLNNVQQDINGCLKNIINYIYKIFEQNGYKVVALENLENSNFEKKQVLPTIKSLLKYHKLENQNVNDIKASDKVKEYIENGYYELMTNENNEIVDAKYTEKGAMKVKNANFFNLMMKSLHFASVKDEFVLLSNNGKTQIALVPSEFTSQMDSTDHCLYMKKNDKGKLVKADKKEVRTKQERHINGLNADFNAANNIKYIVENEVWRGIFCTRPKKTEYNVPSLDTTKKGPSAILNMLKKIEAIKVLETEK
Outline: (§1)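 HEK293T cells were lipofected with nuclease plasmid (pcDNA3.1 backbone) plus RNA guide plasmid, with guide omitted in negative controls. After ~72 h cells were lysed in QuickExtract and % indels were derived from NGS reads, averaged over two bioreplicates and two technical replicates.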

[2] = molecular target: T2, variant nuclease D55G/E736G combination (P14R, D32R, I61R, E311R, D55G, E736G); assay: cell_activity; PAM 5'-TTTA-3'; conditions: tags: pcDNA3.1 expression
T2 chain: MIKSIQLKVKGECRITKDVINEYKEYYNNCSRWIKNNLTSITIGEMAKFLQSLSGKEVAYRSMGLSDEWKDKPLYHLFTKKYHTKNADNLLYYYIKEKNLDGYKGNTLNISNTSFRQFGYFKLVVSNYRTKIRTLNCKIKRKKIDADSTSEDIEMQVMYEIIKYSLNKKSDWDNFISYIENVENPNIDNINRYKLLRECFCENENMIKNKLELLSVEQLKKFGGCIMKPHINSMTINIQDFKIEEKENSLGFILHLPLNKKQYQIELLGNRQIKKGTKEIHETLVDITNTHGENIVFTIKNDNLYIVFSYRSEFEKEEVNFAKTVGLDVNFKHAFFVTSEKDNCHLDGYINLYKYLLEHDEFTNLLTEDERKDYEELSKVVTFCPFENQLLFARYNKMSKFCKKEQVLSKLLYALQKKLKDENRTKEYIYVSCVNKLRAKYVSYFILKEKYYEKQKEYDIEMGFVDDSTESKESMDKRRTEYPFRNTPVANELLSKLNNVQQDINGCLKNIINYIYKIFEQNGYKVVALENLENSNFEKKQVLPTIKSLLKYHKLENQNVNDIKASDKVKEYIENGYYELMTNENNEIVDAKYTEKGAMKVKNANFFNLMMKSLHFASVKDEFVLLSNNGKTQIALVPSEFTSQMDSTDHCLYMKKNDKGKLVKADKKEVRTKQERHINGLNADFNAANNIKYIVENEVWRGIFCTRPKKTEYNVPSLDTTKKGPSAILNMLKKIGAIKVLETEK
Outline: as §1

B1: VEGFA crRNA ; VEGFA target (ssRNA ; dsDNA)
RNA: CUUGUUGUAUAUGUCCUUUUAUAGGUAUUAAACAACUCCAGACCACCAAUGGGCAC
DNA 1: TCCAGACCACCAATGGGCAC
DNA 2: GTGCCCATTGGTGGTCTGGA
For B1, the indel activity [1] was 2.72 fold of WT and the indel activity [2] was 3.06 fold of WT.
